Test results published in US20020119139A1, “Cloning and recombinant expression of mammalian group XII secreted phospholipase A2” (priority 2000, published 2002).

Tests used:
[1] = from reference (18); cited from earlier work
[2] = pH-rate profile of hydrolysis of POPG vesicles; type: biochemical
Protocol: (§1) FIG. 3 represents the enzymatic properties of hGXII. […] Additional assay details have been reported elsewhere (18).
(§2) Large unilamellar vesicles (0.1 μm) of POPC, POPG, and POPS (31) were used to measure the initial rates of hydrolysis by hGXII in Hank's balanced salt solution with 1.2 mM CaCl2 and 0.9 mM MgCl2 using the fatty acid binding protein assay (17). The pH-rate profile and Ca^2+ dependency for the action of hGXII on POPG and POPC vesicles, respectively, were obtained as described (17).

[3] = sPLA2 activity secreted into culture medium of transiently transfected HEK293 cells; type: cell-based; conditions: 1-5 days after transfection
Source text: (§3) A mammalian expression vector containing the full-length hGXII cDNA was first used to transiently transfected HEK293 cells. […] Mass spectrometry analysis gave an experimental mass of 18,702.6±0.5 Da, which agrees well with the mass of 18,702.1 Da calculated from the sequence of mature hGXII shown in FIG. 1A.

[4] = Initial rates of hydrolysis of large unilamellar vesicles, fatty acid binding protein assay; type: biochemical
Protocol: as §1, §2

[5] = Ca2+ dependency of the initial velocity of hydrolysis of POPC vesicles; type: biochemical; conditions: POPC vesicles with 1-palmitoyl-2-[8,9-3H]palmitoyl-sn-glycero-3-phosphocholine
Protocol: as §1, §2

[6] = sPLA2 activity assay using radiolabeled E. coli membranes; type: biochemical; conditions: recombinant protein from E. coli; also active on POPG, POPS and POPC vesicles
Source text: as §3
The decrease as the pH is lowered presumably reflects, in part, the protonation of the active site histidine. As for all mammalian sPLA2s examined so far, the enzymatic activity of hGXII on phosphatidylglycerol vesicles is highest (FIG. 3C), which probably reflects the tighter binding of hGXII to anionic vesicles (37). Although hGXII hydrolyzes POPC at only ˜7% of the rate of POPG, this difference is small compared to the greater than 10^5-fold preference of hGIIA for POPG versus POPC (18).

Molecule	preference for POPG versus POPC [1]	pH of maximal activity [2]	sPLA2 activity secreted into the culture medium versus cells transfected with vector lacking the insert [3]	POPS as substrate ([4]; POPS vesicles)	specific enzymatic activity compared to other mammalian sPLA2s ([4]; compared to hGIB, hGIIA, hGV, hGX, comparable to mGIIE)	enzymatic activity on phosphatidylglycerol vesicles ([4]; compared with POPC and POPS vesicles)	rate of POPC hydrolysis as % of the rate of POPG ([4]; large unilamellar vesicles (0.1 μm), Hank's balanced salt solution, 1.2 mM CaCl2, 0.9 mM MgCl2) [%]	Kca (Ca2+ dependence of sPLA2 activity toward POPC vesicles) [5] [µM]	sPLA2 catalytic activity [6]
hGIIA: human group IIA secreted phospholipase A2, used as literature comparator (protein, UniProt P14555 21-144, looked up) Phospholipase A2, membrane …: NLVNFHRMIKLTTGKEAALSYGFYGCHCGVGGRGSPKDATDRCCVTHDCCYKRLEKRGCGTKFLSYKFSNSGSRITCAKQDSCRSQLCECDKAAATCFARNKTTYNKKYQYYSNKHCRGSTPRC	greater than 10^5 fold	–	–	–	–	–	–	–	–
hGXII: novel human secreted phospholipase A2 of group XII, mature protein of 167 amino acids (SEQ ID No 2), produced in E. coli (protein) MALLSRPALTLLLLLMAAVVRCQEQAQTTDWRATLKTIRNGVHKIDTYLNAALDLLGGEDGLCQYKCSDGSKPFPRYGYKPSPPNGCGSPLFGVHLNIGIPSLTKCCNQHDRCYETCGKSKNDCDEEFQYCLSKICRDVQKTLGLTQHVQACETTVELLFDSVIHLGCKPYLDSQRAACRCHYEEKTDL	–	~8.0	barely above	good substrate	low	highest	~7	30 ± 10	catalytically active
